Source: publication PMC3395085
Like-named read-outs stand apart in the source and are kept apart here.

Key:
Test in all cases: X-ray crystallography
[1] = target: T1, PFV integrase (IN) (prototype foamy virus, UniProt P14350 752-1143)
[2] = target: T1, PFV integrase (IN); remark: listed apart in the source
[3] = target: T1, PFV integrase (IN); remark: listed apart in the source

B1: 3'-processed viral DNA end (R:N, 17/19-mer), formed in crystallo (dsDNA)
DNA 1: TGCGAAATTCCATGACA
DNA 2: ATTGTCATGGAATTTCGCA
Q: Does B1 bind [1]?
A: binds

B2: unprocessed U5 viral DNA end, 5'-phosphate on nonreactive strand (dsDNA)
DNA 1: TGCGAAATTCCATGACAAT
DNA 2: ATTGTCATGGAATTTCGCA
modifications: 5'-phosphate on strand 2 (nonreactive)
Q: Does B2 bind [2]?
A: binds

B3: unprocessed U5 viral DNA end, 19 bp (N:r) (dsDNA)
DNA 1: TGCGAAATTCCATGACAAT
DNA 2: ATTGTCATGGAATTTCGCA
Q: Does B3 bind [3]?
A: binds
